# From article PMC8933513 (2022)
# T1: pAPN ectodomain K374A mutant (pig, UniProt P15145 58-961, K374A)
# T1 sequence: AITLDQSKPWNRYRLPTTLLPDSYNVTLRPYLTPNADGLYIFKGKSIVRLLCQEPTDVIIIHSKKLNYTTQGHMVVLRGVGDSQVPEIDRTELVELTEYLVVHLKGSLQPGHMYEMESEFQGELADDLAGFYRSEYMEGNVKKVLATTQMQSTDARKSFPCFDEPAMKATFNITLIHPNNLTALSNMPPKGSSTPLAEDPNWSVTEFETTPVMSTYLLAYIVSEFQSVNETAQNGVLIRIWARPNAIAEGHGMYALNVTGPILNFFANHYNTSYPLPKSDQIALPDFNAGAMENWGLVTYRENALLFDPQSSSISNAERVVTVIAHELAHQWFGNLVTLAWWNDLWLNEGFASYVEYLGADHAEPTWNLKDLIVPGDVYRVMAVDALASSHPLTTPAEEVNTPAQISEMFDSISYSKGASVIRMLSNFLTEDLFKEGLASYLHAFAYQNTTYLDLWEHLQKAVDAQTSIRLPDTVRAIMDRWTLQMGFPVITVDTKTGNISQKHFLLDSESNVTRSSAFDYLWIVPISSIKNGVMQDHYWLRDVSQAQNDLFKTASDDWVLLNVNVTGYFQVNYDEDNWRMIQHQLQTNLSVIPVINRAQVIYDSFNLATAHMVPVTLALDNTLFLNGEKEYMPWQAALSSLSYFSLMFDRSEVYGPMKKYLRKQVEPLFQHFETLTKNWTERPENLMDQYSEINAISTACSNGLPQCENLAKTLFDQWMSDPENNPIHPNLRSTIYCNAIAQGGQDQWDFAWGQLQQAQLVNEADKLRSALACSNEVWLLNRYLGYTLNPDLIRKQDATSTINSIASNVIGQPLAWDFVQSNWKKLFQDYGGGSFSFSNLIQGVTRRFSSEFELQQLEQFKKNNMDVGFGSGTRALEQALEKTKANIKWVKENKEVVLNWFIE
# T2: human aminopeptidase N (hAPN) ectodomain, residues 62-963, wild type (human, UniProt P15144 62-963)
# T2 chain: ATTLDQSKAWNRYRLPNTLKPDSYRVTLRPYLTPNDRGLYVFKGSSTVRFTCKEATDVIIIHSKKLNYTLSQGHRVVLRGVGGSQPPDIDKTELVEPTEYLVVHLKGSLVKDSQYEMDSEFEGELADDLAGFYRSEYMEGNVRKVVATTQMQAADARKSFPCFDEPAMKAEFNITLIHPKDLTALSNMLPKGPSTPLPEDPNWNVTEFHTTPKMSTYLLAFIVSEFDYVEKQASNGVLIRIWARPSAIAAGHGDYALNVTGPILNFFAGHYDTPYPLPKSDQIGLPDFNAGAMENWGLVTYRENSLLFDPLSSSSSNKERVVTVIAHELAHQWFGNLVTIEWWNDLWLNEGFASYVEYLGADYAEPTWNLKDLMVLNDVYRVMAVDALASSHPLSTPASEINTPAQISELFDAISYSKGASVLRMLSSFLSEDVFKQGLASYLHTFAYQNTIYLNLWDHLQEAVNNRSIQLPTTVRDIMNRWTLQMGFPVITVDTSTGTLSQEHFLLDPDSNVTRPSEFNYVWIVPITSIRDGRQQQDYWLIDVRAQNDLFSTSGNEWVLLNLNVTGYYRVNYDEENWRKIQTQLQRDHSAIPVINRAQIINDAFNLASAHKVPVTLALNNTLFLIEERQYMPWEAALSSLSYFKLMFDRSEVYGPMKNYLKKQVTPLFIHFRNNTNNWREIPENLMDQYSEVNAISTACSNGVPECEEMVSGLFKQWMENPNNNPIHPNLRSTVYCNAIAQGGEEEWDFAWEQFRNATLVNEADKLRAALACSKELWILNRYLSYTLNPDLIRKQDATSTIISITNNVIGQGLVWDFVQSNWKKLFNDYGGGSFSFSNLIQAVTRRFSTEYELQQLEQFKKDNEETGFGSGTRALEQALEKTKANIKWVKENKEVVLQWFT
# Key:
# Experiment in all cases: SPR
# [1] = target: T1, pAPN ectodomain K374A mutant
# [2] = target: hAPN ectodomain K379A mutant (human, UniProt P15144 62-963, K379A)
# [3] = target: T2, human aminopeptidase N (hAPN) …
# [4] = target: hAPN ectodomain E742A mutant (human, UniProt P15144 62-963, E742A)
# [5] = target: hAPN ectodomain E745A mutant (human, UniProt P15144 62-963, E745A)
# [6] = target: hAPN ectodomain H789A mutant (human, UniProt P15144 62-963, H789A)
# hAPN ectodomain K379A mutant, sequence (P15144 62-963 K379A): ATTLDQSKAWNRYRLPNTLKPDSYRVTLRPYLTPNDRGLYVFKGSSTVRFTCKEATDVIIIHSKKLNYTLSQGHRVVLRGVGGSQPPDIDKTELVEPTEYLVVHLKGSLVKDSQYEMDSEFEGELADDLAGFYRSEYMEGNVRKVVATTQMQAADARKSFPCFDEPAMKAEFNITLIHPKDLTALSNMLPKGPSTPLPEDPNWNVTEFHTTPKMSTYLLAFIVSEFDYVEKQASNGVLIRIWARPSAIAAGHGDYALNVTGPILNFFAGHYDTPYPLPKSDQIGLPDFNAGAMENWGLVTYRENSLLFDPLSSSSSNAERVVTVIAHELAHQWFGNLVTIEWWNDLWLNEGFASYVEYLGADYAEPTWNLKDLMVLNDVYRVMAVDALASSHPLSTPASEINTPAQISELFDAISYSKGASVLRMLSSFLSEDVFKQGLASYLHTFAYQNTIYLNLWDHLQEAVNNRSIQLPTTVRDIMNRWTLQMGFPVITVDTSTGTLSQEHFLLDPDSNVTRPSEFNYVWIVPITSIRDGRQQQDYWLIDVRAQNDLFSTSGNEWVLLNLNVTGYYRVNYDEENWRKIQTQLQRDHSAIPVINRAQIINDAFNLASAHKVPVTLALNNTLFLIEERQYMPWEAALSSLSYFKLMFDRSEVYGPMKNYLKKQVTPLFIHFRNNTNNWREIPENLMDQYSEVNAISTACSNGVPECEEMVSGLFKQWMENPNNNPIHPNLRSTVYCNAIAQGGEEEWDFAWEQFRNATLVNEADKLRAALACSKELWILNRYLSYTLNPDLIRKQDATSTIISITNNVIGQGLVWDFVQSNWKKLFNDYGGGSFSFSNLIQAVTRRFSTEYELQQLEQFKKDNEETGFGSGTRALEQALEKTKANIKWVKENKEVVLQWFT
# hAPN ectodomain E745A mutant, sequence (P15144 62-963 E745A): as the sequence (P15144 62-963 K379A) above, with A318K, E684A counted along it
binder,measurement,setting,value
"PDCoV spike (S) protein receptor binding domain (RBD), residues 300-419, wild type (domain or fragment) PKLPELEVVQLNISAHMDFGEARLDSVTINGNTSYCVTKPYFRLETNFMCTGCTMNLRTDTCSFDLSAVNNGMSFSQFCLSTESGACEMKIIVTYVWNYLLRQRLYVTAVEGQTHTGTTS",Kd,[1],> 1000 µM
same,Kd,[2],444 µM
same,Kd,[3],3.71 µM
same,Kd,[4],13.7 µM
same,Kd,[5],3.06 µM
same,Kd,[6],6.25 µM
